Data from article PMC4205155.

Biological target: T1, CREB B-ZIP DNA binding domain (UniProt P16220 269-327)
T1 sequence: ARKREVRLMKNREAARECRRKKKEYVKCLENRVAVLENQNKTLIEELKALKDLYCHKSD
Experiment: EMSA

B1: CRE 28-mer unmethylated (U) (dsDNA)
DNA 1: GTCAGTCAGATGACGTCATATCGGTCAG
DNA 2: CTGACCGATATGACGTCATCTGACTGAC
- binding result: binds
